Experimental data from patent EP1188448A2.

Biological target: FGF receptors
Assay: cell-based or functional assay

Substance | ID50, cytotoxicity on SK-Mel-28 cells (72 h, MTT) [nM] | ID50, inhibition of proliferation of serum stimulated rabbit keratocytes (3 h) [nM] | ID50, inhibition of rabbit keratocyte proliferation (48 h) [nM] | ED50, cytotoxicity on SK-MEL-28 cells [ng/mL]
bFGF-SAP fusion protein (FGF-Ala-Met-SAP), wild type | 0.6 | 1 to 10 | 0.2 | 
wild type bFGF-SAP chemical conjugate (heterogeneous FGF-SAP) (from UniProt P20656 25-277) | 0.3 | 1 to 10 | 0.1 | 8
